From patent publication US20150344570A1 (published 2015) come the findings set out here.

To fix the notation:
T1: FcγRIIb extracellular domain with C-terminal His tag (human, UniProt P31994 43-217)
T1 construct: extracellular domain; also called 2b; FcgRIIb; not shown: His tag at the C terminus
T1 sequence (looked up): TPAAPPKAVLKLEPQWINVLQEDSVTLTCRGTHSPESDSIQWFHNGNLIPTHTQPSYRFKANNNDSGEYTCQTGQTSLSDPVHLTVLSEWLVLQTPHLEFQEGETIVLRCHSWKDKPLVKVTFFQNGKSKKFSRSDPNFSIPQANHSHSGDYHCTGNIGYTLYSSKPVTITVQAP

T2: FcγRIIb extracellular domain with C-terminal His tag (human, UniProt P31994 43-217)
T2 construct: extracellular domain; also called FcgRIIb; 2b; not shown: His tag attached to the C terminus
T2 sequence (looked up): T1 sequence (looked up)

T3: FcγRIIb extracellular domain with C-terminal His tag (human, UniProt P31994 43-217)
T3 construct: extracellular domain; Soluble receptor used as analyte in Biacore; also called FcgRIIb
T3 sequence (looked up): T1 sequence (looked up)

B1: GpH7-A5/GpH7-B3 variant P238_02A/GpL16-k0 (antibody, human IgG1, kappa)
heavy 1: not shown
heavy 2: not shown
light: DIVMTQSPLSLPVTPGEPASISCQASESLVHSNRNTYLHWYLQKPGQSPQLLIYKVSNRFSGVPDRFSGSGSGTDFTLKISRVEAEDVGVYYCSQNTHVPPTFGQGTKVEIERTVAAPSVFIFPPSDEQLKSGTASVVCLLNNFYPREAKVQWKVDNALQSGNSQESVTEQDSKDSTYSLSSTLTLSKADYEKHKVYACEVTHQGLSSPVTKSFNRGEC
notes: IgG1, anti-glypican-3; also called He Ab
B2: GpH7-A5/GpH7-B3 variant A327_09D/GpL16-k0 (antibody, human IgG1, kappa)
heavy 1: not shown
heavy 2: not shown
light: B1 light
notes: Heterodimerized IgG1, mutation in the GpH7-B3 chain only; also called He Ab
B3: GpH7-A5/GpH7-B3 variant I332_09D/GpL16-k0 (antibody, human IgG1, kappa)
heavy 1: not shown
heavy 2: not shown
light: B1 light
notes: as for B2
B4: GpH7-A5/GpH7-B3 variant L328_02A/GpL16-k0 (antibody, human IgG1, kappa)
heavy 1: not shown
heavy 2: not shown
light: B1 light
notes: as for B2
B5: GpH7-A5/GpH7-B3 variant I332_10E/GpL16-k0 (antibody, human IgG1, kappa)
heavy 1: not shown
heavy 2: not shown
light: B1 light
notes: as for B2
B6: GpH7-A5/GpH7-B3 variant A327_10E/GpL16-k0 (antibody, human IgG1, kappa)
heavy 1: not shown
heavy 2: not shown
light: B1 light
notes: as for B2
B7: GpH7-A5/GpH7-B3 variant A330_05P/GpL16-k0 (antibody, human IgG1, kappa)
heavy 1: not shown
heavy 2: not shown
light: B1 light
notes: as for B2
B8: GpH7-A5/GpH7-B3 variant P331_03V/GpL16-k0 (He Ab) (antibody, human IgG1, kappa)
heavy 1: not shown
heavy 2: not shown
light: B1 light
notes: Heterodimerized antibody with the alteration in one H chain only
B9: GpH7-A5/GpH7-B3 variant I332_11K/GpL16-k0 (He Ab) (antibody, human IgG1, kappa)
heavy 1: not shown
heavy 2: not shown
light: B1 light
notes: as for B8
B10: GpH7-A5/GpH7-B3 variant L328_10E/GpL16-k0 (He Ab) (antibody, human IgG1, kappa)
heavy 1: not shown
heavy 2: not shown
light: B1 light
notes: as for B8
B11: GpH7-A5/GpH7-B3 variant P331_08L/GpL16-k0 (He Ab) (antibody, human IgG1, kappa)
heavy 1: not shown
heavy 2: not shown
light: B1 light
notes: as for B8
B12: GpH7-A5/GpH7-B3 variant P331_15Y/GpL16-k0 (He Ab) (antibody, human IgG1, kappa)
heavy 1: not shown
heavy 2: not shown
light: B1 light
notes: as for B8
B13: GpH7-A5/GpH7-B3 variant P331_18N/GpL16-k0 (He Ab) (antibody, human IgG1, kappa)
heavy 1: not shown
heavy 2: not shown
light: B1 light
notes: as for B8
B14: GpH7-A5/GpH7-B3 variant L328_09D/GpL16-k0 (He Ab) (antibody, human IgG1, kappa)
heavy 1: not shown
heavy 2: not shown
light: B1 light
notes: as for B8
B15: GpH7-A5/GpH7-B3 variant L328_15Y/GpL16-k0 (He Ab) (antibody, human IgG1, kappa)
heavy 1: not shown
heavy 2: not shown
light: B1 light
notes: as for B8
B16: GpH7-A5/GpH7-B3 variant L328_19Q/GpL16-k0 (He Ab) (antibody, human IgG1, kappa)
heavy 1: not shown
heavy 2: not shown
light: B1 light
notes: as for B8

The first experiment addresses T4, FcγRIIIa extracellular domain with C-terminal His tag (human, UniProt P08637 17-208).
T4 construct: extracellular domain; also called 3a; FcgRIIIa; not shown: His tag at the C terminus
As to the kind of experiment: SPR (Biacore), relative to GpH7-A5/GpH7-B3/GpL16-k0 = 100. On the technique in general: SPR reads the build-up and loss of mass on a sensor chip optically.
T4 sequence (P08637 17-208): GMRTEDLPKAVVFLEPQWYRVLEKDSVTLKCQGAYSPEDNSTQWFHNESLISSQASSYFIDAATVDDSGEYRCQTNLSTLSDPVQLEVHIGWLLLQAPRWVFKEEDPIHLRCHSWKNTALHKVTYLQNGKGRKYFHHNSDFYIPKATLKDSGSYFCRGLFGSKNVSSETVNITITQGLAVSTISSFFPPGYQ
Consider B1, for which the He/Con_3a was 31.4 % (control = 100).

Another experiment addresses T1, FcγRIIb extracellular domain with …. The experiment is described as above.
As for B1, the He/Con_2b is 57.4 % (control = 100).

The target in the next experiment is T5, FcγRIa extracellular domain with C-terminal His tag (human, UniProt P12314 16-292).
T5 construct: extracellular domain; Soluble receptor used as analyte in Biacore; also called FcgRI
T5 sequence (P12314 16-292): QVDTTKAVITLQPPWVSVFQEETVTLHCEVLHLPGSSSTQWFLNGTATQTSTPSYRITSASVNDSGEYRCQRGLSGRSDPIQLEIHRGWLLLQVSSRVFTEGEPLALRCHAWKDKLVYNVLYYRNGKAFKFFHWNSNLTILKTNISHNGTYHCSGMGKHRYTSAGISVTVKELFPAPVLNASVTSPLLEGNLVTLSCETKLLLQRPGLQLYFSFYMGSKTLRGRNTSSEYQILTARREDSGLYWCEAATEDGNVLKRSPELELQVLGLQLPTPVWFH
In words: ratio He/Con_1a : He/Con_2b (FcγRIa over FcγRIIb), SPR (Biacore).
In the case of B2, the “He_1a/2b (Ia/IIb)” value came out at 0.6.
The same measure, in the same setting: the same measure for B3: 0.64.
In the case of B4, the “He_1a/2b (Ia/IIb)” value was 0.68.
As to B5, the “He_1a/2b (Ia/IIb)” value stood at 0.68.
Regarding B6, the “He_1a/2b (Ia/IIb)” value came out at 0.74.
Take B7: the “He_1a/2b (Ia/IIb)” value amounted to 0.74.

The next experiment has as its target T4, FcγRIIIa extracellular domain with …. In words: SPR (Biacore); ratio of He/Con_3a (FcγRIIIa) to He/Con_2b (FcγRIIb).
For the molecule B1, the “He_3a/2b (IIIa/IIb)” value came out at 0.55.

In a further experiment the target is T2, FcγRIIb extracellular domain with …. In words: SPR (Biacore), antibody captured on antigen peptide chip, FcγR as analyte; relative binding. The procedure:
(§1) The heterodimerized antibodies He Abs in which one of the H chains was introduced with an alteration were assayed for their binding activities to each activating FcγR and inhibitory FcγR according to the method described in Example 4. […] The activating FcγRs in FIGS. 26, 27, 28, and 29 are FcγRIa, FcγRIIa (R), FcγRIIa (H), and FcγRIIIa, respectively.
(§2) Analysis of interaction between objective antibody and the FcγR was carried out using Biacore T100 (GE Healthcare). HBS-EP+ (GE Healthcare) was used as the running buffer, and the measurement temperature was set to 25° C. Chips produced by immobilizing the antigen peptide by the amine coupling method to a Series S Sencor Chip CM5 (GE Healthcare), or alternatively, chips produced by allowing preliminarily biotinylated antigen peptides to interact with and immobilize onto a Series S Sensor Chip SA (certified) (GE Healthcare) were used. Antibodies of interest were captured onto an antigen peptide-immobilized chip, and allowed to interact to each FcγR diluted with running buffer. To regenerate and repeatedly use the chip, the antibodies captured on the chip were washed off by reacting 10 mM glycine-HCl, pH 1.5.
Take B8: the He/Con_2b was 119 % of GpH7-A5/GpH7-B3/GpL16-k0 (=100).
For B9, the He/Con_2b was 70.9 % of GpH7-A5/GpH7-B3/GpL16-k0 (=100).
The same measure, in the same setting: the same measure for B10: 172 % of GpH7-A5/GpH7-B3/GpL16-k0 (=100); for B11: 95.7 % of GpH7-A5/GpH7-B3/GpL16-k0 (=100).
On to B12, for which the He/Con_2b was 114 % of GpH7-A5/GpH7-B3/GpL16-k0 (=100).
Turning to B13, the He/Con_2b is 99.2 % of GpH7-A5/GpH7-B3/GpL16-k0 (=100).
B14: the He/Con_2b is 199 % of GpH7-A5/GpH7-B3/GpL16-k0 (=100).
For the molecule B15, the He/Con_2b was 193 % of GpH7-A5/GpH7-B3/GpL16-k0 (=100).
Regarding B16, the He/Con_2b was 105 % of GpH7-A5/GpH7-B3/GpL16-k0 (=100).

For the next experiment, the target named is T6, FcγRIIIa extracellular domain with C-terminal His tag (human, UniProt P08637 17-208).
T6 construct: extracellular domain; also called FcgRIIIa; 3a; not shown: His tag attached to the C terminus
The description is as above. The procedure: as §1, §2
T6 sequence (P08637 17-208): as the sequence (P08637 17-208) above
With B8, the He/Con_3a is 73.2 % of GpH7-A5/GpH7-B3/GpL16-k0 (=100).
On to B9, for which the He/Con_3a is 45.1 % of GpH7-A5/GpH7-B3/GpL16-k0 (=100).
As for B10, the He/Con_3a is 53.4 % of GpH7-A5/GpH7-B3/GpL16-k0 (=100).
The same measure, in the same setting: the same measure for B11: 72.1 % of GpH7-A5/GpH7-B3/GpL16-k0 (=100); for B12: 81.9 % of GpH7-A5/GpH7-B3/GpL16-k0 (=100).
Same read-out and setting: the same measure for B13: 73.4 % of GpH7-A5/GpH7-B3/GpL16-k0 (=100).
In the case of B14, the He/Con_3a is 47.8 % of GpH7-A5/GpH7-B3/GpL16-k0 (=100).
For the molecule B15, the He/Con_3a was 68.3 % of GpH7-A5/GpH7-B3/GpL16-k0 (=100).
Turning to B16, the He/Con_3a was 81.1 % of GpH7-A5/GpH7-B3/GpL16-k0 (=100).

For the next experiment, the target named is T5, FcγRIa extracellular domain with …. As to the kind of experiment: SPR (Biacore), antibody captured, FcγR as analyte; binding relative to GpH7-A5/GpH7-B3/GpL16-k0 = 100.
For B2, the He/Con_1a was 103 control = 100.
Same read-out and setting: the same measure for B3: 93.4 control = 100; for B4: 98.5 control = 100.
Molecule B5 had a He/Con_1a of 96.3 control = 100.
Turning to B6, the He/Con_1a was 103 control = 100.
Molecule B7 registered a He/Con_1a of 101 control = 100.

In the next experiment the target is T3, FcγRIIb extracellular domain with …. The description is as above.
For B2, the He/Con_2b was 172 control = 100.
Same read-out and setting: to B3 belongs 147 control = 100; to B4, 144 control = 100; to B5, 142 control = 100.
B6 came in with a He/Con_2b of 140 control = 100.
Consider B7, for which the He/Con_2b was determined as 137 control = 100.
